Data on 2 substances can be found in article PMC4209802.

Where two headings read alike, the source gives them in different places.

Experiment in all cases: FRET or BRET
For orientation: In BRET a luciferase serves as donor, and the signal depends on an acceptor being close.

Test [1] has as its target OT-I TCR vβ5 chain.
Test [2] has as its target P14 TCR vβ8 chain.
Test [3] concerns the target P14 TCR vβ8 chain. This is another data set of the same source.
Test [4] addresses OT-I TCR vβ5 chain. The source holds these as a separate data set.
In test [5] the target is OT-I TCR vβ5 chain. This is another data set of the same source.
The target of test [6] is P14 TCR vβ8 chain. The source holds these as a separate data set.
Test [7] deals with P14 TCR vβ8 chain. The source holds these as a separate data set.
In test [8] the target is P14 TCR vβ8 chain. The source holds these as a separate data set.
In test [9] the target is OT-I TCR vβ5 chain. This is another data set of the same source.
In test [10] the target is P14 TCR vβ8 chain. The source holds these as a separate data set.
The target in test [11] is P14 TCR vβ8 chain. The source holds these as a separate data set.

For the substance “OT-I TCR vα2 chain with N-terminal HA tag”, the FRET efficiency with OT-I TCR vβ5 chain [1] came out at 25%; with P14 TCR vβ8 chain [2], 21%; in the test with P14 TCR vβ8 chain [3], 16%; with OT-I TCR vβ5 chain [4], 33.7%; with OT-I TCR vβ5 chain [5], 32.5%; in the test with P14 TCR vβ8 chain [6] it was 22.6%.

On to “P14 TCR vα2 chain with two N-terminal myc tags”, for which the FRET efficiency with P14 TCR vβ8 chain [7] was determined as 35%; in the test with OT-I TCR vβ5 chain [1], 12%; with P14 TCR vβ8 chain [2], 19%; with P14 TCR vβ8 chain [8], 27%; with P14 TCR vβ8 chain [3], 10%; in the test with OT-I TCR vβ5 chain [9] it was 28%. The FRET efficiency worked out at 26% with P14 TCR vβ8 chain [10], 27% with P14 TCR vβ8 chain [11], 12% in the test with OT-I TCR vβ5 chain [5] and 23.3% with P14 TCR vβ8 chain [6].
